# Measurements reported in patent US20140044713A1 (KONINKLIJKE NEDERLANDSE AKADEMIE VAN WETENSCHAPPEN, published 2014).
# T1: Lgr5 ΔLRR1-17 (deletion of N-terminus and entire LRR region) (UniProt O75473 22-907)
# T1 construct: whole, on cells; Deletion construct
# T1 sequence (looked up): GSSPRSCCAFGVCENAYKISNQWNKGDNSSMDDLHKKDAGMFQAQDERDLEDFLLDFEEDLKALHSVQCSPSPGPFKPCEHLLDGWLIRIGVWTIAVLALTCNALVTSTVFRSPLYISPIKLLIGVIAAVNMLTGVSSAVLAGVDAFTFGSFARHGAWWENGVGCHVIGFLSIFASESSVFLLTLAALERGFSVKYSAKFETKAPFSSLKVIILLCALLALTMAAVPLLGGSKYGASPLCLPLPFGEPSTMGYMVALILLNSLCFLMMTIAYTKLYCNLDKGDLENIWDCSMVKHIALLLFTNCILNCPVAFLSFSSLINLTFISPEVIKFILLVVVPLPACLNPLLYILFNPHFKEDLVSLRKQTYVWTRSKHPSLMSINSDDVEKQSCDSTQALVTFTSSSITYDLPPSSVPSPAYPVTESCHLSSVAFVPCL
# T2: Lgr5 ΔN (deletion of the extreme N-terminus of Lgr5, amino acids 28-50) (UniProt O75473 22-907)
# T2 construct: whole, on cells; Deletion construct
# T2 sequence (looked up): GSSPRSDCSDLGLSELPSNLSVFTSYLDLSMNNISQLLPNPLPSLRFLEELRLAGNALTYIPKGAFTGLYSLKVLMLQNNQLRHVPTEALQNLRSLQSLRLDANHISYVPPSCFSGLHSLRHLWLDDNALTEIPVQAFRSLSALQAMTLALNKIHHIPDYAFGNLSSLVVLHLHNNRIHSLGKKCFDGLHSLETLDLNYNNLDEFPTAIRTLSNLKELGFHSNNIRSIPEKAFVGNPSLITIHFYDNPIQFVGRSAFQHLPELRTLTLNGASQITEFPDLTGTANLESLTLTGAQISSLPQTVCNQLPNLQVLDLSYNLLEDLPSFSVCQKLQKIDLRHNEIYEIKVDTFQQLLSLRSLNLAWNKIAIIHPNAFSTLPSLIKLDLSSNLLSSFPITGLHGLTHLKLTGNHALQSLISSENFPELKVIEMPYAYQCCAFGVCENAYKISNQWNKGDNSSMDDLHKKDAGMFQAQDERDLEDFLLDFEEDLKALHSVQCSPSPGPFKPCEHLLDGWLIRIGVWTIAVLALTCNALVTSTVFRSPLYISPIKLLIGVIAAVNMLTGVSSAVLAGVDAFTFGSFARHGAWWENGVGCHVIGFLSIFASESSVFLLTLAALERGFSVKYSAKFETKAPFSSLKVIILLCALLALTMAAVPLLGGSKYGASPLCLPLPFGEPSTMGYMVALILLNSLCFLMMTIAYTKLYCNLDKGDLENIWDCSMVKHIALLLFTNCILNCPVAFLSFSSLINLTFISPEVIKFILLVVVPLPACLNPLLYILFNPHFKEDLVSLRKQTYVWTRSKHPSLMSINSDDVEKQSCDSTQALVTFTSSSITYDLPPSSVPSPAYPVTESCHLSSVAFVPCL
# T3: control Lgr7 (Homo sapiens (Human), UniProt Q9HBX9 1-757)
# T3 construct: not shown: the sister constructs are FH-tagged
# T3 sequence: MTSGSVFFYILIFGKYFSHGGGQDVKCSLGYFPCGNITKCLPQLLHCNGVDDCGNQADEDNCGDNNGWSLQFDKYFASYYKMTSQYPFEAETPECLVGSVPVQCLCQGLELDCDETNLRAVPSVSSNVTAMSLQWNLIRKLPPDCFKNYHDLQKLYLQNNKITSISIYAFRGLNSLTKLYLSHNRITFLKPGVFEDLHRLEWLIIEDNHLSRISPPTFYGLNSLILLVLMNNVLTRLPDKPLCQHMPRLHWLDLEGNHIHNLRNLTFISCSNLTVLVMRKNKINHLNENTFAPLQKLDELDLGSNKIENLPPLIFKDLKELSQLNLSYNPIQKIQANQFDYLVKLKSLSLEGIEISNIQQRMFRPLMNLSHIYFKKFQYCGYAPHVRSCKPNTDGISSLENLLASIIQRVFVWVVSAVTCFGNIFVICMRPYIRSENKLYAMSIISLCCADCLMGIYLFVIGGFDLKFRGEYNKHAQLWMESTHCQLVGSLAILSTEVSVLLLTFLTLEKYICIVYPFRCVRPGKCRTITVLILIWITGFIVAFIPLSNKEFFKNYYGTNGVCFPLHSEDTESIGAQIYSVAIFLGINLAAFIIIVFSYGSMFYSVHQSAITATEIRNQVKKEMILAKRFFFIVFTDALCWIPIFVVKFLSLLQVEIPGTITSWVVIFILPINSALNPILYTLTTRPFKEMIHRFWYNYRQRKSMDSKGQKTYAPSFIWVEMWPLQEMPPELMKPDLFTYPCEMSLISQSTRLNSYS
# T4: LGR5-478 (exo domain of LGR5 without the CRL region) (UniProt O75473 22-478)
# T4 construct: domain: exo domain of LGR5 without the CRL region; Purified protein
# T4 sequence (looked up): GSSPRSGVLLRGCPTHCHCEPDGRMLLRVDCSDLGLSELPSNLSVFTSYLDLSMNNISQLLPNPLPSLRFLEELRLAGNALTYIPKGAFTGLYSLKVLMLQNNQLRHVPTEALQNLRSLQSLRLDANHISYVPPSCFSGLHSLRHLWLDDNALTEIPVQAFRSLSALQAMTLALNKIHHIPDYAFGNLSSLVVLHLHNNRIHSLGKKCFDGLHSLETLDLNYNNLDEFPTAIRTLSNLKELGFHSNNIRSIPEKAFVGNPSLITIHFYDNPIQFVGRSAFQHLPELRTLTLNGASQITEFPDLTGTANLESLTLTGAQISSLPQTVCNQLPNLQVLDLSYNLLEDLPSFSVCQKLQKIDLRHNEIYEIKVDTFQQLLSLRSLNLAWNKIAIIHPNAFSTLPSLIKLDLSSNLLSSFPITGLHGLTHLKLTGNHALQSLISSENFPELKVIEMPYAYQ
# How the values were obtained:
# [1] = target: T1, Lgr5 ΔLRR1-17 (deletion of N-terminus …); test: right panels: incubation with Rspo1 after cell lysis, FLAG immunoprecipitation, anti-hIgG-Fc Western blot
# [2] = target: T2, Lgr5 ΔN (deletion of the extreme …); test: as above
# control Lgr7 = target: T3, control Lgr7; test: HEK293T cells transfected with the tagged Lgr, incubated with Rspo1-Fc, protein G immunoprecipitation, anti-FLAG Western blot
# Description: FIG. 7A: Rspondin1 binds to Lgr4, Lgr5 and Lgr6. […] Bottom: Input of tagged proteins.
# tagged Frizzled5 (Frz5) = target: T5, tagged Frizzled5 (Frz5) (UniProt Q13467 27-585, limits assumed); test: Rspo1-Fc pull-down (proteinG beads) from transfected HEK293T cells, FLAG western blot
# T5 construct: whole, on cells; also called double-tagged Frizzled5; Frz5 bait; not shown: FLAG/HA tag
# T5 sequence (Q13467 27-585 limits assumed): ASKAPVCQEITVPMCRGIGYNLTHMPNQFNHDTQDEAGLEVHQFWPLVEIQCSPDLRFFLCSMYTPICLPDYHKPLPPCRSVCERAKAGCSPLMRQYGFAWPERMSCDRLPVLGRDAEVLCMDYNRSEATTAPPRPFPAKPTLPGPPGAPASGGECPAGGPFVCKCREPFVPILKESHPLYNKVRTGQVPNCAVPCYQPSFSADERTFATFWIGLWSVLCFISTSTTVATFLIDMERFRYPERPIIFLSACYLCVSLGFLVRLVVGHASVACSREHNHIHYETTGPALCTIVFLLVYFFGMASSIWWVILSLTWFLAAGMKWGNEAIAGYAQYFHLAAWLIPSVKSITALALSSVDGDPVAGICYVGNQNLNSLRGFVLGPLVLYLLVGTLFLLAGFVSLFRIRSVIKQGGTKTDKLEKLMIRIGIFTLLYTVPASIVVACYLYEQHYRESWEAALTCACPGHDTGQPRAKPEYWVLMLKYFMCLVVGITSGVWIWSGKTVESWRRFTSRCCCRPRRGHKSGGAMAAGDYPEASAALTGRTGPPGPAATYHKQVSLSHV
# [3] = target: T4, LGR5-478 (exo domain of LGR5 without …); test: gel filtration of purified proteins
binding result [1],binding result [2],binding result (control Lgr7),binding result (tagged Frizzled5 (Frz5)),binding result [3],Binder
no binding,no binding,no binding (tested: ~1 µg/ml),no binding (tested: ˜1 µg/ml),–,"Rspo1-Fc fusion protein (Fc fusion, also called Rspondin1 IgFc fusion protein; not shown: Fc (IgFc) part) SRGIKGKRQRRISAEGSQACAKGCELCSEVNGCLKCSPKLFILLERNDIRQVGVCLPSCPPGYFDARNPDMNKCIKCKIEHCEACFSHNFCTKCKEGLYLHKGRCYPACPEGSSAANGTMECSSPAQCEMSEWSPWGPCSKKQQLCGFRRGSEERTRRVLHAPVGDHAACSDTKETRRCTVRRVPCPEGQKRRKGGQGRRENANRNLARKESKEAGAGSRRRKGQQQQQQQGTVGPLTSAGPA"
–,–,–,–,no binding,"antibody 1D9 (antibody, V domains shown, Rat monoclonal antibody against human Lgr5; hybridoma LMBP 6961CB; also called Ab1; 1D9 A5) VH: EVKLQESGAALVKPGASVKLSCKASGYTFTDYYIHWVKQSHGKSLEWIGYINPNSGYTNYNEKFKSKATLTVDKSTNTAYMELSRLTSEDSATYYCTRFGSYWYFDFWGQGTTVTVSS VL: MTQSPTSMSISIGDRVTMNCKASQNVDSNVDWYQQKTGQSPKLLIYKASNRYTGVPDRFTGSGSGTDFTFTISNMQAEDLAVYYCMQSNSYPLTFGSGTKLEIKR"
